In article PMC3905857, “Structure and properties of the esterase from non-LTR retrotransposons suggest a role for lipids in retrotransposition” (Nucleic Acids Research, 2013):

B1: ZfL2-1 esterase (ZfL2-1_ES) (Danio rerio) (protein)
chain: DVAIIGDSIVRHVRAASSKGNKVRTFCFPGARVKNISTQIPTILGAAESPGAVVLHVGTNDTGLRQSEILKKDFRSLIETVRRTSPATQIIVSGPLPTYRRGNERFSRLLALNEWLITWCKEQKLLFANNWNLFWERPRLFRPDGLHPSRAGAELLSDNISRLLRTI
notes: esterase domain D136-I302, codon-optimized synthetic gene, pETM41P, E. coli BL21-Star; 19 kDa monomer (MBP apparently removed)
B2: ZfL2-1_CC, N-terminal construct comprising the coiled coil domain of the ZfL2-1 ORF1p (M15-T91) (domain or fragment, Danio rerio (zebrafish), UniProt Q3LG57 15-91, looked up)
chain: MEALELELEEVESQIRALVVRRSRLRERLLAVPNAKAVSSPKVRGNYNHIIPSTSTPRPSLSRPSAPGARLSQASFT
notes: ORF1 protein (ORF1p) of the ZfL2-1 non-LTR retrotransposon, Danio rerio, Uniprot Q3LG57, residues M15-T91; Expressed from pETM41P from a codon-optimized synthetic template

What was measured:
purified protein = substrate: CC(=O)Oc1ccc([N+](=O)[O-])cc1; assay: purified protein; type: biochemical, Danio rerio; conditions: 20 mM Tris/HCl pH 7.5, 250 mM NaCl, 5 mM MgCl2, 25°C
[1] = target: the molecule itself; assay: SEC-MALS; Superdex 75 (10/300 GL) followed online by MALLS; 20 mM Tris/HCl pH 7.5, 250 mM NaCl, 5 mM MgCl2

Protein | Km (purified protein) [µM] | kcat (purified protein) [s⁻¹] | stoichiometry N [1]
B1 | 430 ± 100 | 0.32 ± 0.07 | –
B2 | – | – | 2
